Measured values as given in US7192733B2, “Methods and means for modulating PGE synthase activity” (Karolinska Innovations AB, priority 1998, dated 2007).

Legend:
[1] = system: 17.5 kDa protein from sheep seminal vesicles (PGE synthase activity); conditions: read-out: Km for PGH2; cited from earlier work
[2] = system: 180 kDa protein from sheep seminal vesicles (PGE synthase activity); conditions: larger (180 kDa) protein; read-out: Km for PGH2; cited from earlier work
human PGE synthase = biological target: T1, human PGE synthase (Homo sapiens, UniProt O14684); assay: PGE synthase enzyme assay (inhibition of PGE2 formation from PGH2); assay type: biochemical; conditions: 1 mM for 5 min prior to incubation; membrane fraction from bacteria expressing PGE synthase
T1 construct: made in house; host or cells: E. coli BL21 (DE3) pLysSL, vector pSP19T7LT; membrane fraction
T1 sequence (O14684 1-152): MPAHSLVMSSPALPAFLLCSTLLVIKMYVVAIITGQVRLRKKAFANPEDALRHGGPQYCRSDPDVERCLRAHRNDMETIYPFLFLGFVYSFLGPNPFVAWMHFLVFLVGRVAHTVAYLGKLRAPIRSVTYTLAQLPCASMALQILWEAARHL
Experimental: (§1) The protein sample was diluted in potassium inorganic phosphate buffer (0.1 M, pH=7.4) containing 2.5 mM reduced glutathione. The reaction (total volume=100 μl) was started by the addition of 10 μM PGH2 with or without 0.1 μCi 3H PGH2 and terminated with 60 μl acetonitrile/HCl, lowering the pH to 3.2. In order to determine the formation of either PGF2α, PGE2 or PGD2, an aliquot (60 μl) was analyzed by reverse-phase-HPLC combined with UV detection (195 nm) and/or radioactivity detection using an online β-RAM detector (Inus System, Inc.). The reverse-phase HPLC column was Nova-Pak C18 (3.9×150 mm, 4 μm particle size) obtained from Waters. The mobile phase was water, acetonitrile and trifluoroacetic acid (70:30:0.007, by vol) with a flow rate of 1 ml/min.
(§2) For analysis of 12-HHT, a mobile phase of methanol, water and acetic acid (70:30:0,01, by vol) was used and UV detection at 236 nm. The amounts of produced PGE2 and 12-HHT were quantified by integration of the areas under the eluted peaks at 195 and 236 nm, respectively.
(§3) The membrane fraction (0.02 mg total protein/ml) isolated from bacteria expressing PGE synthase was incubated for 2 min in the presence of PGH2 (10 μM including 1 μCi 3H PGH2) and reduced glutathione (2.5 mM).

[3] = system: PGE synthase expression in A549 cells; assay: Induction of PGE synthase protein in A549 cells, Western blot; assay type: cell-based, human; conditions: 1 ng/ml, 24 h
Experimental: Samples were diluted and boiled for two min in SDS-containing sample buffer (Laemmli, U. K. (1970) Nature 227, 680–5). Proteins were separated through 14% polyacrylamide gels (Novex) and electroblotted (Towbin, H., et al.(1979) PNAS USA 76, 4350–4) onto PVDF (Pall) membranes. Transfer efficiency was visualized using pre-stained standards (Novex). Membranes were then soaked for 1 h at 25° C. in Tris-buffered saline (100 mM Tris-HCl, pH=7.5, 150 mM NaCl) containing 0.1% (v/v) Tween and 5% (w/v) non-fat dried milk. The membrane was subsequently washed twice in 0.1% T-TBS followed by 1 h incubation at 25° C. with the indicated antiserum (1:2000 dilution) in 0.05% (v/v) T-TBS and 2% (w/v) non-fat dried milk. […]
In order to investigate whether or not PGE synthase may also be regulated by this cytokine, A549 cells were cultured for 24 h in the presence of 1 ng/ml IL-1β. Normal cells as well as cells treated with IL-1β were subsequently analyzed for PGE synthase expression by SDS-PAGE followed by Western blotting.
Total protein corresponding to 0.2×10^6 cells grown for 24 h in the presence (1 ng/ml) or absence of IL-1β was fractionated by SDS-PAGE and transferred to PVDF membrane. […] Also analyzed was the commercial available, partly purified, PGE synthase from sheep seminal vesicles (6 μg) as well as the membrane fraction from bacteria expressing human PGE synthase (5 μg).

PGH2 = assay: PGE synthase activity of fractions from cells expressing recombinant protein (PGH2 to PGE2, RP-HPLC); assay type: biochemical; conditions: for PGE synthase activity: membrane fraction or microsomes of cells expressing the control protein
Experimental: as §1, §2, §3
In this experiment the various dilutions of the membrane fraction obtained from bacteria expressing PGE synthase were incubated in the presence of PGH2 (10 μM) and GSH (2.5 mM) for 2 min. The PGE2 formation was analyzed and quantified by RP-HPLC and UV detection at 195 nm as described in Materials and Methods above.
The membrane fraction obtained from bacteria expressing PGE synthase (0.02 mg/ml) was incubated with PGH2 for the indicated times in the presence (filled circles) or absence (open circles) of glutathione. Filled triangles represent non-enzymatic (buffer only) PGE2 formation after incubation with PGH2. The product formation was analyzed by RP-HPLC and PGE2 was detected and quantified using UV absorbance at 195 nm.

In the case of `CCCCC[C@H](O)/C=C/[C@@H]1[C@@H](C/C=C\CCCC(=O)O)[C@@H]2C[C@H]1OO2` (relative stereo) [PGH2, 15(S)-hydroxy-9α, 11α-peroxidoprosta-5-cis-13-trans-dienoic acid], the Km [1] is listed as 40 µM and the Km [2] is listed as 150 µM.

With `CCN1C(=O)C=CC1=O` [N-ethylmaleimide] the “enzyme activity after treatment of the membrane fraction” value (human PGE synthase) was “abolished”.

For “IL-1β: proinflammatory cytokine interleukin-1β”, the “PGE synthase protein expression” value [3] was “induced”.

With “MGST2: microsomal glutathione S-transferase 2 expressed in Sf9 cells, microsomes [reference compound]” the “PGE synthase activity” value (PGH2) was “no PGE synthase activity”.

B1: PGE synthase: human PGE synthase (SEQ ID NO: 2) expressed in E. coli, tested as bacterial membrane fraction (protein, listed as Homo sapiens)
chain: T1 sequence (O14684 1-152)
In the case of B1, the “glutathione dependent PGE synthase activity” value (PGH2; bacterial membrane fraction, PGH2, reduced glutathione) is reported as 0.25 µmol/min/mg, the deduced specific activity (PGH2; estimating that 1% of the bacterial membrane protein is MGST1-L1) is reported as 25 µmol/min/mg and the “specific activity under linear conditions (subtracting background formation)” value (PGH2; membrane fraction 0.02 mg/ml, PGH2 10 μM, GSH 2.5 mM) is reported as 250 nmol/min/mg.

B2: ratMGST1: rat microsomal glutathione S-transferase 1 expressed in bacteria, control membrane fraction (protein, UniProt P08011 2-155, looked up)
Microsomal glutathione …: ADLKQLMDNEVLMAFTSYATIILAKMMFLSSATAFQRLTNKVFANPEDCAGFGKGENAKKFLRTDEKVERVRRAHLNDLENIVPFLGIGLLYSLSGPDLSTALIHFRIFVGARIYHTIAYLTPLPQPNRGLAFFVGYGVTLSMAYRLLRSRLYL
With B2 the “PGE synthase activity” value (PGH2) was “no PGE synthase activity”.
